The NTF2 design screens of Basanta et al. (2020)

assay: protease stability score; higher = more stable; yeast display proteolysis, trypsin and chymotrypsin;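 also: relative to predicted unfolded state with 0 unfolded-like and 1 meaning tenfold more protease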

Compared with “NEVDEWVEEAVHLLEEILETGDFRELSNYFDPRVRIDINGRDYHGRELALEQLLRWIEDLGVKHFDHYEIHDREIQGEKVNLNIEITLTFDGRRHTIHHNFHMEKVNGKWVIESIHIR”, “SENEKRMRELAEIILISWWTGDEDTLKDLADPRTRVNIDGVDLIGMELTSEFLERHLREMRIHSIELESITVIDGQAHIHLEVDTVVNGVRIRTKIHILVVTVDGRLKSEHYHRR” is lower in protease stability score: 1.19 for the first, 0.446 for the second.

Going from “DEERQESEEALRHSMELWATGDFESLSRNVDPNVRVEIGDKTFHGWEIAHELFHKIKNLTVHLEDHEIQGEKVTIHGVLNFNGKREHVRLYSKKVNGRWILEKVQVG” to “DDREEDLHKALHLFRMTMLTGNEDLFRDLADPHTRVSVNGQELIGREHMEHWWKRVDHIEDSRLERVDIVDGVVLVDGRFVGTVNGRRIDTEYTIFAQKVNGQWILHSVKIV”, the protease stability score falls from 2.17 to 1.19.

First: DEETEIEKHAMEHIFRANETGNWREILEMIDPNVKIEYGDKERHGMTIYLEILELWGITKIHLDIQSIRVINGRMDIHGRIVFNGKTHTVDLHLLKVDGRWILTEIRVR
Second: DEDEESATKFTRELIHHTRTGDEESLKELADPNVRIDFNGVEIHGMEWWLKLHVHLGAKIILRLKDIETIGDKVHIHGEREIRVNGKNIRTKIRILVEKVDGRWVLKHEELG
The protease stability score of the first is higher: 1.3 for the first, 1.21 for the second.

Going from “SEEEHKIRKLLEDLANFIRTGDEHRINELLDPNVMIDINGQKFHGRESLETVYHEWLKRVDHIEDLRIDDISKQGEFLIMHANMTLRQGDKHHRENVHIIILKVDGRWIMTSILFR” to “DEENERVHQALRDWRHIHRTGDEESTRHNMDPNARLDVNGVEVHGMEKVSEMFVELRIEHLHLERVHTQGEKVEVHTHVEVRQGDKRQEVKVIIFYIKINGRWFVERFEIH”, the protease stability score falls from 2.2 to 0.85.

Compared with “SEDEEMVEKAHQIEKESLETGDEKMILDLLDPNVRIRVDGVDFHGWEHAEKLLRELRIERVNLRSFTWQGDFLRLDGELTFDYNGKKIRTKVRIYADKVDGRWFHKSHEVT”, “HERERMLEVALRLFIETMRTGDEKITSELADPNVKIHIGDKTDHGRESFTNFFEEMGADHVNVHDVEVQGDKVKTDIRIQIGDKMVESILYVKKVNGRWLIRSIEIR” is lower in protease stability score: 1.1 for the first, 1.05 for the second.

Compared with “HEEDHHMEIAIELNQRMLQTGDEELLEKLADPSVRLKQGDKDVHGRHVVSRWLHEVIMKFPNVTIIERHVRIIDGKVHFHGDWHFNGVDQHVTIIAEKVNGRWILKTIELK”, “DHTKKMAEEALRDFWRDFRTGDEDSLNKMADPNVRILIGDKEVVGRERMVELFREVLKKYKNARVITDIEDLDDQGNWVHSDVRFHLHVGDKTVDIEREIVMRKVNGRWYIETHVVK” is lower in protease stability score: 0.983 for the first, 0.397 for the second.

Compared with “SEEERDVKEVLKLIFEHFLTGDWDWLSEMMDPHARSDINGVERHGRDDLKEMYEAIIRKLGADHIRVDTVRVDLFDGRLIVEIHTRNHVGDKEFRVINIFIMRKINGRWHVESVLLHIE”, “DESEEHSEIMLRILHHALRTGDEEEITRLLDPHVRVIIGDKHYHGWEDYVKTVFTTAKEMRMHIHITDSKVQGNYVHLDTRLLIHYNGKTFTYNTRLVTVKVNGQWRLHSETSH” is lower in protease stability score: 1.56 for the first, 1 for the second.

Going from “HEEEELLERVIRLMVENIITGNEDQLNNLVDPHAKIDIDGVILHGRDWVRDLHERVDHMEVRITDWRMIGDKVQTDSRLTNRFNGKEYRRDVRFHAHKINGRWINQTIEIR” to “SDEEEDIERAIRLMHEIHETGDESVWEHLADPHVKVDFNGQERHGREDMIKIWHYLGVKHVFFRDIRVQGEFLVVHSEDNVDGKTFQIRYLVFKINGRWFLEEVEFD”, the protease stability score rises from 0.722 to 0.942.

First: TEEEQLLKEFAELYLRNWWTGNEDKLLELADPHARSVVNGREIHGRENMYKLIRLWLERFKNIQIHYDDVKFQGNYVKLHGHMTVGDKTTHIIIHILVIDGVIKELSLEVN
Second: DEEEEEAHTITEILVHDWRTGNEEHLVKLIDPNARINYNGVNLHGMKAVSIILHHIRYKDVSLHEVRVFDGQVEIILKIHVNINGQDETHHTHIVLSKVNGRWLIDTIKWE
The protease stability score of the first is higher: 1.56 for the first, 1.28 for the second.

Compared with “DEEKKFYIKLFELFWRAWLTGNEQFLLEMADPNVKVEYTYNGRDVRTHGRETMYTFLHEILRYLGVKHSRLRRDEFQGDKVHLDVEEHFNGRTVKTLIIIDVVDGRLEIDKFHTT”, “SEDETLMRHLVQLFIRREATGDWKKLDELFDPNVRIDINGVEYHGREDWLKHYEDLLKRIKNVRIEIDDQHMEVVGDFIHYDLHGTLEVNGRNIRMQIIIHIRKIDGKWLIEEQIIIIR” is higher in protease stability score: 0.705 for the first, 1.4 for the second.

First: HEDEEMLHRLAELVEELFRTGDEEMHDHLMDPHARINIDGRDLHGRENMRILWQKLGIERVHVEFHDVKAIGDKASVHTFLEVNGVKVEILIRSEKINGRWVITQINIVFH
Second: SEEEKSSHLSIRLWLEMLITGDEDHLEHLADPNVRIEFEGREFHGRERAMHWMRHVSRHMRIEHIQIRRIHYFDGRLQLEGRIDGNINGRNHRFDSELEVTKIDGRWLLTSERIE
The protease stability score of the first is lower: 0.386 for the first, 1.24 for the second.

Compared with “SEDEELLKKFFERLLHALRTGDEDHLRTLIDPHARLIQGDKHYIGREQLEHSLHIILSHIRFEHHDSRREEIQGDKAIVHSHLIVRQGDKTYRLDVTFHLEKVNGRWVIREVDLN”, “DEEEHRLRHFSELFTELFKTGDWKTFAKLMDPEVRTHSEWNGQEFSDHGMEAIVHFFKEFVDKFKNLTFHLTRIEVQGDKVHIDTILIFNGKTFTTRLEFIVVNGRIKEVRYHVK” is lower in protease stability score: 1.33 for the first, 1.13 for the second.

Going from “DHDDHMREHLIELFIRWTTTGDFDELLRLVDPNARFDVNGREIHGWDVFMKMYEDTRHLLGADHAEVRNKDERFQGDKVTITIEVTIEVGDKEHREERELYVRKVDGKWTMKSLKIR” to “SEEEDYMRELAERFLHAFITGDWQFIYKMFDPRVRWNVDGQNFVGREQLVHHLEKIKREMRVRHFELKDIKIIDGVSFINGRVDTTYGDKSSEHEVHISLVLIDGRVKHVQIRLE”, the protease stability score rises from 0.703 to 2.34.

First: DELERRAEEVFRQWLHYWLTGDFESMERLADPNVRIVINGVELIGMEHVAREIVHRIRHWRVRIQIDRIDNQGDKVHSEGKLIIHQGEKNIHHDITIHFDVVNGKIKHLEIRIQ
Second: DHRESLRDDMEELLLEVIHTGDWHNYLKLLDPNARLVVGDKEYMGRERVLHWFKEKLDKIPGAKIELEDKREIGNKVELDFDMHVGDKSLRLHIDLRKVNGRWLIEHIEIR
The protease stability score of the first is higher: 2.24 for the first, 1.47 for the second.

Going from “SEDEELVDHAWETYLRNLLTGDERTLADLIDPHVRVHINGVEFIGREELIKWLSEIRIRTIRVRRRSLINGRVEIIVDLELQVGDKHDRVTIYLIMDKFDGRWIHHTFSVE” to “SEDSEQALTIIEQLTKNLATGDEDTAEELVDPNVRINIGDKTIHGMHELSRFLLELRSEHRSHIRDVRVQGDKINVEGEDEIIIQVNGQEIRIRKHVHWIIDKIDGVWFVRSVNIH”, the protease stability score rises from 0.41 to 1.89.

First: DEEHRLSHEIEKHLEDDLRTGDFHHFIKQVDPNTRVRYGDKRLHGMHAVIWTLEHLGIDVFHLTDSHTFENRVVVHVRLEQGDFTMSVEVHATKVNGRWIVTKINFHHS
Second: TDEEELAERLARIMIHLFLTGNEEIMSKLLDPDVRSWVNGQEFHGREEEAKVVRKMIEEWRFHDMHIHDVHVINGRLHVDSRVDNRVGDKTIDIRTELRFDVVNGRLKILEWHFT
The protease stability score of the first is lower: 0.023 for the first, 0.341 for the second.

Going from “DETEEMVREMAHLFLHLWITGDEEIIKHLLDPSVRLHINGVDNHGRENALEVVHRILKELRLRHLHIHEVHIINGVIHNNIRLDIEQGDKRRILEIEVILVVWNGKIKSIEVRLK” to “DEEESIERELSRRWLHWFITGDEERAKKLADPRARYHQGDKEIHGWDNLRKFLFEILEKIPNLRIIIRDSDVINGRIHYDTELHIDGVHIKTHLIIVIVDGRLKELHVEEH”, the protease stability score falls from 1.51 to 0.06.

First: DELDEELHKLFEKYLRSHLTGDFHSLERLLDPNARLIWIVDGKMINIHGREDISRFLREWEEEARHHHHELKEVDTQGNYFHSRMHEDGHINGVRRKIHVTHNIVMIDGKLESITHIII
Second: DEEHEELKKMVQHSLQLLMTGDEETIYHLLDPHAKVIINGVEYHGMSLSAKIMIKMARDLGVERFEVHLEHSRWFDGRVDVHISRRVNGQTEEVHINSKKINGRWHLKSIIFN
The protease stability score of the first is higher: 1.08 for the first, 1.06 for the second.

First: SEDMERAESFHREWLEFSRTGDEDTLRSLLDPNARLRYGDKEYHGMDSLSRVDRELRVHDSRVHDLRIIDGRVHMDVDLDGTYNGKRVLLHTHFVVEKIDGRWILRSVHIH
Second: DEKQRDIEEMARRFVEIFHTGDEENYLELADPDMRLDVGDKHYHGREDVHKWLHEELRRIKNATIRIKHIHVQGDKVHLEITIEIGDKHRKSHIHLQIVDGVIKRIEIRWS
The protease stability score of the first is lower: 0.643 for the first, 1.09 for the second.

Compared with “SEEEELDKKAFKLWIHSLRTGDEDLITELADPRVKMTIGDKEFHGREEFKHAMHELLKRVDHIKDVKLKHWDVINGRLHVIVEVNGNVDGRETYIETSMTSLKINGRWILQSWSVR”, “DEDKEIAEHNLRLLSHSRLTGDEESMHKLMDPNAKIDFNGREIHGMEWIEWLKNQLRLKHVHTEFKDSRIINGRMEVDVNLRLHLSINGKEVDFIIDVELISQKVDGRWIVRSEIYR” is lower in protease stability score: 1.31 for the first, 0.375 for the second.

Going from “DEEDEVLKLAFEFIRHQLETGDEDTLNRYVDPHARFEVNGRDIHGRDRYNRFLEELYRKHGVEIKDVLLQDNKSQGDKIRIDIKINIDVNGREVNFDVHIIALKINGKWIHKRQIDI” to “DEETKRAEELMELWLHLLRTGDEELLSELMDPHVRLDINGVELHGREALLQWHHEHRRRIDHREIRVESRRIQGEKVEQHEDIIIHVNGVEFRHREFYEVVIIDGRFKELHIEHE”, the protease stability score rises from 0.542 to 0.546.

First: HEDDHQAERITHITMHAILTGDWRRMEELLDPHYRIEFENHENIGRERVNKVLIDLGIRNEIEIKRIRFQGDFVEIDGKLKIDVGDKHIEIKVRLFYVKINGRWFHHHVDLR
Second: SEDERDAKFATDLVLHLLRTGDEEKLLQLLDPNVRVEQGNKDWHGREDWHDFMEIMGIDHMTIHHVELRVVNGRVESHVDIRLLVNGRDDDVQLVLFMKKVDGRWRVTSLRFIYR
The protease stability score of the first is lower: 0.835 for the first, 1.74 for the second.

First: DERHNKQWNKELIKIWTDGDHKKFSEMLDKDVQIQVGDKEYHGREEIVRQYKTLMDRADHFEVKRYEVKGNDITIIFTFQVNGRRDQVRVVFVIENGHVKKITMDKK
Second: DEEHKELRRAWEQLIHDIKTGDEESFKRLADPDVQVRVGDKVEHGREATERWLRQVDHIKHFEEKRIHIYDGRVELKGRVTGVINGRELNTEIDFEIVYIDGKLHRIRIHFR
The protease stability score of the first is higher: 1.97 for the first, 1.09 for the second.

First: SEEEKTVKELVRLILHLLSTGDEEKWLHLADPNMRIEIDFNGKHVELHGREHVHWLLKQFKNARIEIELKHVHVYDGVAEITSILHYHQGDFHWHTESEVMVVVVDGRIKEISFRIR
Second: SEMEEVAVREWEILVKALRTGDERIISELMDPHARVDYNGRQLHGREEVKKFLEEIRIVTHHTEIKDHEYQGNKLIMHGHVDVENEYGDKTERIDTHIHIILRKVNGRWFITEIDIR
The protease stability score of the first is lower: 2.24 for the first, 2.53 for the second.

First: DEDEYMAKEMSELLIHLLLTGDEEHFRKFADPNVRLIIGEFESHGREEALRLLRILHRDYGIKHIHFRLRHIHQIGDKVNIHSQVELRQGDKHNSHEMTVIIWKVNGRWVIHSIDIV
Second: DEETRHAREMMRIIAESLHTGDEDRLLEMIDPNVRVHVDGQDYHGREQWFQYLHEELRHLRIKHLTVTHHKVYDGRVELHLRVHGEVNGRHTEKTFIVIILKVDGRWKIESLRIE
The protease stability score of the first is higher: 2.38 for the first, 2.15 for the second.
